B1: Chromobox protein homolog 8 (Homo sapiens), Q9HC52 (parent)
chain: MELSAVGERVFAAEALLKRRIRKGRMEYLVKWKGWSQKYSTWEPEENILDARLLAAFEEREREMELYGPKKRGPKPKTFLLKAQAKAKAKTYEFRSDSARGIRIPYPGRSPQDLASTSRAREGLRNMGLSPPASSTSTSSTCRAEAPRDRDRDRDRDRERDRERERERERERERERERERGTSRVDDKPSSPGDSSKKRGPKPRKELPDPSQRPLGEPSAGLGEYLKGRKLDDTPSGAGKFPAGHSVIQLARRQDSDLVQCGVTSPSSAEATGKLAVDTFPARVIKHRAAFLEAKGQGALDPNGTRVRHGSGPPSSGGGLYRDMGAQGGRPSLIARIPVARILGDPEEESWSPSLTNLEKVVVTDVTSNFLTVTIKESNTDQGFFKEKR

Variants of: B1
Settings: with af9_mouse Mllt3, A2AM29
af9_mouse Mllt3, A2AM29, sequence (A2AM29 whole entry): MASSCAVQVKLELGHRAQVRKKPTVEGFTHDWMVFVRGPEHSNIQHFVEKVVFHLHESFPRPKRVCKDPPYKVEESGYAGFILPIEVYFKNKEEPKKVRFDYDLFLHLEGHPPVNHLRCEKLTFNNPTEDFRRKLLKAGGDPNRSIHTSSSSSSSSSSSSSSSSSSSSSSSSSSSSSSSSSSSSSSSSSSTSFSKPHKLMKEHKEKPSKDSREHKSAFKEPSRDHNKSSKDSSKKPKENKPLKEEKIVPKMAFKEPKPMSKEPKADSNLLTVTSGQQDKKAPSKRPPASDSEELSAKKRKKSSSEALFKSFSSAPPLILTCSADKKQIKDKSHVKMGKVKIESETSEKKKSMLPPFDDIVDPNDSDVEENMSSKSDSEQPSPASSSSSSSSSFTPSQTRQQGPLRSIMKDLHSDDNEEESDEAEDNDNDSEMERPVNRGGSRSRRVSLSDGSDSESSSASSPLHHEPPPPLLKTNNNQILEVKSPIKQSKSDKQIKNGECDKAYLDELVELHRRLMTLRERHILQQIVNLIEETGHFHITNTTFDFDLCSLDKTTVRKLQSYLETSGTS

Row | effect of a mutation on the interaction | Variant
1 | increasing interaction strength | MELSAVGERVFAAEALLKRRIRKGRMEYLVKWKGWSQKYSTWEPEENILDARLLAAFEEREREMELYGPKKRGPKPKTFLLKAQAKAKAKTYEFRSDSARGIRIPYPGRSPQDLASTSRAREGLRNMGLSPPASSTSTSSTCRAEAPRDRDRDRDRDRERDRERERERERERERERERERGTSRVDDKPSSPGDSSKKRGPKPRKELPDPSQRPLGEPSAGLGEYLKGRKLDDTPSGAGKFPAGHSVIQLARRQDSDLVQCGVTSPSSAEATGKLAVDTFPARVIKHRAAFLEAKGQGALDPNGTRVRHGSGPPSSGGGLYRDMGAQGGRPSLIVRIPVARILGDPEEESWSPSLTNLEKVVVTDVTSNFLTVTIKESNTDQGFFKEKR [A335V]
